In paper PMC8382222 (2021):

B1: C-reactive protein (CRP) (natural protein)
chain: QTDMSRKAFVFPKESDTSYVSLKAPLTKPLKAFTVCLHFYTELSSTRGYSIFSYATKRQDNEILIFWSKDIGYSFTVGGSEILFEVPEVTVAPVHICTSWESASGIVEFWVDGKPRVRKSLKKGYTVGAEASIILGQEQDSFGGNFEGSQSLVGDIGNVNMWDFVLSPDEINTIYLGGPFSPNVLNWRALKYEVQGEVFTKPQLWP
B2: vascular endothelial growth factor (Recombinant Human VEGF165) (ligand)
chain: APMAEGGGQNHHEVVKFMDVYQRSYCHPIETLVDIFQEYPDEIEYIFKPSCVPLMRCGGCCNDEGLECVPTEESNITMQIMRIKPHQGQHIGEMSFLQHNKCECRPKKDRARQENPCGPCSERRKHLFVQDPQTCKCSCKNTDSRCKARQLELNERTCRCDKPRR

What was measured:
CRP-1 peptide = CRP-1 peptide (C-terminal amide (amidate version); cyclized); test: SPR
VEGF-114 peptide = VEGF-114 peptide (C-terminal amide (amidate version); cyclized); test: SPR

Binder | Kd (CRP-1 peptide) [µM] | koff (CRP-1 peptide) [s⁻¹] | Kd (VEGF-114 peptide) [µM] | koff (VEGF-114 peptide) [s⁻¹]
B1 | 12 | 0.046 |  | 
B2 |  |  | 10.3 | 0.75
